Source: article PMC12412652 (2025)
Each block holds one binder with its values, some of them ahead of it.

Key:
Test in all cases: BLI
BCL-2 = BCL-2 (UniProt P10415 1-239, biotin)
BFL-1 = molecular target: T1, BFL-1 (UniProt Q16548 1-175, biotin)
T1 chain: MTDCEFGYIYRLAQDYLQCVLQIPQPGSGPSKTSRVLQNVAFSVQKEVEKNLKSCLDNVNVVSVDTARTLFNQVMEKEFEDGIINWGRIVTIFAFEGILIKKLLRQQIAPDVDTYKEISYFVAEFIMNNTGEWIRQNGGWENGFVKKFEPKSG

BCL-W = molecular target: T2, BCL-W (Homo sapiens)
T2 chain: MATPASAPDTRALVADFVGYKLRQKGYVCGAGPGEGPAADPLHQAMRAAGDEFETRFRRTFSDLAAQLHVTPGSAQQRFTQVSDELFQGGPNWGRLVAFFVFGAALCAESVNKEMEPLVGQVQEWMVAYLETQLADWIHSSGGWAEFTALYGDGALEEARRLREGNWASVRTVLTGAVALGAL

BCL-B = molecular target: T3, BCL-B (Homo sapiens)
T3 chain: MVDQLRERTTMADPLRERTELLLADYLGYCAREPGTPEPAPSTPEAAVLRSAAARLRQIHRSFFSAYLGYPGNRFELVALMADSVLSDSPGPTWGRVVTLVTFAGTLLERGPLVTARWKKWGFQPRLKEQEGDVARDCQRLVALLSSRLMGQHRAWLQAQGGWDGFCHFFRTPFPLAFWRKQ

BCL-XL = BCL-XL (Homo sapiens)
MCL-1 = molecular target: T4, MCL-1 (Homo sapiens)
T4 chain: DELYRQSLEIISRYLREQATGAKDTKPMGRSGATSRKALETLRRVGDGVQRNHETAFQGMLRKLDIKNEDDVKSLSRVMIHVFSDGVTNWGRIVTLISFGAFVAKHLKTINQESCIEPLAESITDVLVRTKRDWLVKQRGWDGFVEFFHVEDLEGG

Chain of BCL-XL (Homo sapiens) (chain, as listed by the source): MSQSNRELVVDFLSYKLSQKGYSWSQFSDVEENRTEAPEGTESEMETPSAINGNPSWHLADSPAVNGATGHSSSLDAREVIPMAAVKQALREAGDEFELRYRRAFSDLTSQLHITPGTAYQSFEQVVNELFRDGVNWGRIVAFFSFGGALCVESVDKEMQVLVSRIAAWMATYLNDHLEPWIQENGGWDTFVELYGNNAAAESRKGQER
Chain of BCL-2 (P10415 1-207): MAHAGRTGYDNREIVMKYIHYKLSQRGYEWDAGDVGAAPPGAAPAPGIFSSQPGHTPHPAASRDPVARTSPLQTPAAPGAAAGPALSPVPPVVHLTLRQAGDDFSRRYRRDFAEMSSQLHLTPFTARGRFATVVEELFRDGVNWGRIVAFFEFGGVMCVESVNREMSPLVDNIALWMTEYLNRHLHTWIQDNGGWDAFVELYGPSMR

Kd (BCL-2): 130 nM | Kd (BFL-1): 10 nM
B1: BAK-CDP02 (BAK-targeting computationally designed protein 02 of 11) (designed binder)
chain: GADPKKVLDKAKDQAENVVRKLKQILEELYKEARKLDLTQDEKIELILRYIAAMLAAIGDILEAIRQAKEEADKLKKAGLVNSQQLDELKRRLEELRKEAARKARDYAEEFRNKLEYG

Kd (BCL-W): 800 nM
B2: BAK-CDP02 (BAK-targeting computationally designed protein 02 of 11) (designed binder)
chain: GADPKKVLDKAKDQAENVVRKLKQILEELYKEARKLDLTQDEKIELILRYIAAMLAAIGDILEAIRQAKEEADKLKKAGLVNSQQLDELKRRLEELRKEAARKARDYAEEFRNKLEYG
modifications: biotinylated for BLI (Avi tag). Limits not printed in the text (constructs as in cited earlier work); the soluble form lacking the C-terminal tail is taken by convention. Any solubility mutations are not stated

Kd (BCL-B): 200 nM
B3: BAK-CDP02 (BAK-targeting computationally designed protein 02 of 11) (designed binder)
chain: GADPKKVLDKAKDQAENVVRKLKQILEELYKEARKLDLTQDEKIELILRYIAAMLAAIGDILEAIRQAKEEADKLKKAGLVNSQQLDELKRRLEELRKEAARKARDYAEEFRNKLEYG
modifications: biotinylated for BLI (Avi tag). Limits not given; the soluble form lacking the transmembrane segment (183-200) is taken by convention

Kd (BCL-XL): 30000 nM
B4: BAK-CDP02 (BAK-targeting computationally designed protein 02 of 11) (designed binder)
chain: GADPKKVLDKAKDQAENVVRKLKQILEELYKEARKLDLTQDEKIELILRYIAAMLAAIGDILEAIRQAKEEADKLKKAGLVNSQQLDELKRRLEELRKEAARKARDYAEEFRNKLEYG
modifications: biotinylated for BLI (Avi tag). Limits not given; the soluble form lacking the transmembrane segment (210-226) is taken by convention. Any loop deletion is not stated

Kd (MCL-1): 5.4 nM
B5: BAK-CDP02 (BAK-targeting computationally designed protein 02 of 11) (designed binder)
chain: GADPKKVLDKAKDQAENVVRKLKQILEELYKEARKLDLTQDEKIELILRYIAAMLAAIGDILEAIRQAKEEADKLKKAGLVNSQQLDELKRRLEELRKEAARKARDYAEEFRNKLEYG
modifications: biotinylated for BLI (Avi tag). Limits not given; the conventional BCL-2-fold core 172-327 is taken

Kd (BCL-W): 300000 nM
B6: αBAX1 (designed binder)
chain: GADPKKVLDKARDQAENRVRELAQKLEELYKEARKLDLTQEERRKLEKRYKAAMEEAIKDIHEAIEQAKEEADKLKDAGLVNEQQLKELKQRLNELAIAAAFRASGDTIEFRRKLQYG
modifications: biotinylated for BLI (Avi tag). Limits not printed in the text (constructs as in cited earlier work); the soluble form lacking the C-terminal tail is taken by convention. Any solubility mutations are not stated

Kd (MCL-1): 10 nM
B7: BAX-CDP01 (BAX-targeting computationally designed protein 01) (designed binder)
chain: GADPKKVLDKARDQAENRVRELAQKLEELYKEARKLDLTQEERRKLEKRYKAAMEEAIKDIREAIRQAKQEADKLKKAGLVNSQQLKELKQRLNELAIAAALRAIGDAIEFRRKLQYG
modifications: biotinylated for BLI (Avi tag). Limits not given; the conventional BCL-2-fold core 172-327 is taken

Kd (BCL-B): 80000 nM
B8: αBAX2 (designed binder)
chain: GADPKKVLDKARDQAENRVRELRQKLTELYKEARKLDLTQEERRKLIKRYKAAMNEAIKDIHEAIEQAKEEADKLKDAGLVNEQQLKELKQRLNEKALAAAFRASGDTWHARRKLQYG
modifications: biotinylated for BLI (Avi tag). Limits not given; the soluble form lacking the transmembrane segment (183-200) is taken by convention

Kd (MCL-1): 600 nM
B9: αBAX1 (designed binder)
chain: GADPKKVLDKARDQAENRVRELAQKLEELYKEARKLDLTQEERRKLEKRYKAAMEEAIKDIHEAIEQAKEEADKLKDAGLVNEQQLKELKQRLNELAIAAAFRASGDTIEFRRKLQYG
modifications: biotinylated for BLI (Avi tag). Limits not given; the conventional BCL-2-fold core 172-327 is taken

Kd (BCL-XL): 1090 nM
B10: αBAX2 (designed binder)
chain: GADPKKVLDKARDQAENRVRELRQKLTELYKEARKLDLTQEERRKLIKRYKAAMNEAIKDIHEAIEQAKEEADKLKDAGLVNEQQLKELKQRLNEKALAAAFRASGDTWHARRKLQYG
modifications: biotinylated for BLI (Avi tag). Limits not given; the soluble form lacking the transmembrane segment (210-226) is taken by convention. Any loop deletion is not stated

Kd (BCL-W): 6000 nM
B11: BAX-CDP01 (BAX-targeting computationally designed protein 01) (designed binder)
chain: GADPKKVLDKARDQAENRVRELAQKLEELYKEARKLDLTQEERRKLEKRYKAAMEEAIKDIREAIRQAKQEADKLKKAGLVNSQQLKELKQRLNELAIAAALRAIGDAIEFRRKLQYG
modifications: biotinylated for BLI (Avi tag). Limits not printed in the text (constructs as in cited earlier work); the soluble form lacking the C-terminal tail is taken by convention. Any solubility mutations are not stated

Kd (MCL-1): 18000 nM
B12: αBAX2 (designed binder)
chain: GADPKKVLDKARDQAENRVRELRQKLTELYKEARKLDLTQEERRKLIKRYKAAMNEAIKDIHEAIEQAKEEADKLKDAGLVNEQQLKELKQRLNEKALAAAFRASGDTWHARRKLQYG
modifications: biotinylated for BLI (Avi tag). Limits not given; the conventional BCL-2-fold core 172-327 is taken

Kd (BCL-B): > 20000 nM
B13: αBAX1 (designed binder)
chain: GADPKKVLDKARDQAENRVRELAQKLEELYKEARKLDLTQEERRKLEKRYKAAMEEAIKDIHEAIEQAKEEADKLKDAGLVNEQQLKELKQRLNELAIAAAFRASGDTIEFRRKLQYG
modifications: biotinylated for BLI (Avi tag). Limits not given; the soluble form lacking the transmembrane segment (183-200) is taken by convention

Kd (BCL-XL): 510 nM
B14: αBAX1 (designed binder)
chain: GADPKKVLDKARDQAENRVRELAQKLEELYKEARKLDLTQEERRKLEKRYKAAMEEAIKDIHEAIEQAKEEADKLKDAGLVNEQQLKELKQRLNELAIAAAFRASGDTIEFRRKLQYG
modifications: biotinylated for BLI (Avi tag). Limits not given; the soluble form lacking the transmembrane segment (210-226) is taken by convention. Any loop deletion is not stated
